Experimental data as given in patent publication US20210347873A1 (SHANGHAI PHARMAEXPLORER, published 2021).

Columns and labels:
[1] = biological target: T1, human BLyS (full length, arginine to histidine at position 132) on CHO-K1 cells (human, UniProt Q9Y275 1-285); test: flow cytometry, CHO-K1 hBLyS cells, antibody 0.107 nM
T1 construct: also called hBLyS; CHO-K1 hBLyS

[2] = biological target: T1, human BLyS (full length, arginine to …); test: flow cytometry, CHO-K1 hBLyS cells, antibody 0.534 nM
[3] = biological target: T2, cynomolgus BLyS (full length, arginine to histidine at position 132) on CHO-K1 cells (cynomolgus, UniProt Q9Y275 1-285 (human entry)); test: flow cytometry, CHO-K1 cynoBLyS cells, antibody 0.534 nM
T2 construct: also called cyno BLyS; CHO-K1 cynoBLyS
T2 chain: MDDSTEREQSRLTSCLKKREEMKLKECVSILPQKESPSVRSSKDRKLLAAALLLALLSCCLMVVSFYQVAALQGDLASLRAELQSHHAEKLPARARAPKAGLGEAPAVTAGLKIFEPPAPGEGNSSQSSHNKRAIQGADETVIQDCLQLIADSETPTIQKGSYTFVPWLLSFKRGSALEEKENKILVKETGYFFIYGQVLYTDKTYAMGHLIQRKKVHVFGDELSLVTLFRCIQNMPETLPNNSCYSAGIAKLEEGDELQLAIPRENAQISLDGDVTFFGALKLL

[4] = biological target: T2, cynomolgus BLyS (full length, arginine …); test: flow cytometry, CHO-K1 cynoBLyS cells, antibody 2.67 nM
[5] = biological target: mouse BLyS protein (mouse, UniProt Q9WU72 69-309); test: cell-based or functional assay
Chain of mouse BLyS protein (Q9WU72 69-309): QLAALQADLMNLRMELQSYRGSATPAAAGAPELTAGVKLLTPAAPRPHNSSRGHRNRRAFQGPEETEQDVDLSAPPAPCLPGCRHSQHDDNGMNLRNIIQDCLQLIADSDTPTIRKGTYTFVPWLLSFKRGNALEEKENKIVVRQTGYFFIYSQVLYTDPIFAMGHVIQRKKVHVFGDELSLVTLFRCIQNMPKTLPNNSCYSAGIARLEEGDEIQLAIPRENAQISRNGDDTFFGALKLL

[6] = biological target: T1, human BLyS (full length, arginine to …); test: flow cytometry, CHO-K1 hBLyS cells, antibody 0 nM
[7] = biological target: T1, human BLyS (full length, arginine to …); test: flow cytometry, CHO-K1 hBLyS cells, antibody 0.0213 nM
[8] = biological target: T2, cynomolgus BLyS (full length, arginine …); test: flow cytometry, CHO-K1 cynoBLyS cells, antibody 0.107 nM

T1 sequence (Q9Y275 whole entry R130H): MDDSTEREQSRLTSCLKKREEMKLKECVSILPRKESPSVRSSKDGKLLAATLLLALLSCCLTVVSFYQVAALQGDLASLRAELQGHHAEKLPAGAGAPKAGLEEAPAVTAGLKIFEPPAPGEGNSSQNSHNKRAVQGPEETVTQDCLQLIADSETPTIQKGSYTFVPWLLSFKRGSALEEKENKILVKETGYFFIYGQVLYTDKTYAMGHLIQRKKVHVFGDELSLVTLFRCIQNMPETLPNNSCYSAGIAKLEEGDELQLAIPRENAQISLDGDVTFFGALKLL

Binder | MFI [1] | MFI [2] | MFI [3] | MFI [4] | mouse B lymphocyte proliferation (OD450 nm), antibody 0 nM [5] | mouse B lymphocyte proliferation (OD450 nm), antibody 0.000256 nM [5] | mouse B lymphocyte proliferation (OD450 nm), antibody 0.00128 nM [5] | mouse B lymphocyte proliferation (OD450 nm), antibody 0.0064 nM [5] | mouse B lymphocyte proliferation (OD450 nm), antibody 0.032 nM [5] | mouse B lymphocyte proliferation (OD450 nm), antibody 0.16 nM [5] | mouse B lymphocyte proliferation (OD450 nm), antibody 0.8 nM [5] | mouse B lymphocyte proliferation (OD450 nm), antibody 4 nM [5] | mouse B lymphocyte proliferation (OD450 nm), antibody 20 nM [5] | mouse B lymphocyte proliferation (OD450 nm), antibody 100 nM [5] | MFI [6] | MFI [7] | MFI [8]
L1D12 (antibody, V domains shown, From a human naive scFv phage library; also called human BLyS antibody L1D12; LID12) VH: QVQLVQSGGGLVQPGGSLRLSCAASGFTVSSNYMSWVRQAPGKGLEWVSVIYSGGSTYYADSVKGRFTISRDNSKNTLYLQMNSLRAEDTAVYYCARGFHDILTGYGMDVWGQGTTVTVSS VL: SSELTQDPAVSVALGQTVRITCQGDSLRNYYAGWYQQKPGQAPVLVIYGKNNRPSGIPDRFSGSSSGNTASLTITGTQAEDEADYYCSSRDNSGTHLVEFGGGTKLTVL | 205 MFI | 413 MFI | 900 MFI | 1170 MFI | 2340 OD450 nm | 2450 OD450 nm | 2610 OD450 nm | 2500 OD450 nm | 2460 OD450 nm | 2520 OD450 nm | 2410 OD450 nm | 2560 OD450 nm | 2460 OD450 nm | 2450 OD450 nm | 101 MFI | 89.5 MFI | 364 MFI
2-1G11 (antibody, V domains shown, From a human naive scFv phage library; also called human BLyS antibody 2-1G11) VH: EVQLVESRGGVVQPGRSLRLSCAASGFTFSSYGMHWVRQAPGKGLEWVAVISYDGSNKYYADSVKGRFTISRDNSKNTLYLQMNSLRAEDAAVYYCARDRVDILTGYSIYGMDVWGQGTTVTVSS VL: EIVMTQSPATLSLSPGERATLSCRASQSVSSYLAWYQQKPGQAPRLLIYDASKRATGIPARFSGSGSGTDFTLTISSLEPEDFAVYYCQQRSNWPLTFGGGTKVEIK | 403 MFI | 591 MFI | 1400 MFI | 1480 MFI | 2320 OD450 nm | 2450 OD450 nm | 2560 OD450 nm | 2610 OD450 nm | 2470 OD450 nm | 2750 OD450 nm | 2820 OD450 nm | 2460 OD450 nm | 2680 OD450 nm | 2490 OD450 nm | 186 MFI | 180 MFI | 816 MFI
L9G7 (antibody, V domains shown, From a human naive scFv phage library; also called human BLyS antibody L9G7) VH: QIQLVQSGAEVKKPGASVKVSCKASGYTFTSYGISWVRQAPGQGLEWMGWISAYNGNTNYAQKLQGRVTMTTDTSTSTAYMELRSLRSDDTAVYYCARTYYDILTGYYYYGMDVWGQGTTVTVSS VL: EIVLTQSPGTLSLSPGERATLSCRTSQSVDTYLAWYQQKPGQAPRLLIYDASNRATGIPARFSGSGSGTDFTLTISSLEPEDFAVYYCQQRSNWPLTFGGGTKVEIK | 226 MFI | 469 MFI | 1010 MFI | 1280 MFI | 2100 OD450 nm | 2430 OD450 nm | 2480 OD450 nm | 2460 OD450 nm | 2340 OD450 nm | 2260 OD450 nm | 640 OD450 nm | 308 OD450 nm | 243 OD450 nm | 221 OD450 nm | 101 MFI | 93 MFI | 387 MFI
